The record followed here is US20210180049A1 (CHUGAI SEIYAKU KABUSHIKI KAISHA, priority 2013, published 2021).

One assay concerns the target T1, hIL-6R (Homo sapiens, UniProt P08887).
T1 sequence (P08887 20-357 limits assumed): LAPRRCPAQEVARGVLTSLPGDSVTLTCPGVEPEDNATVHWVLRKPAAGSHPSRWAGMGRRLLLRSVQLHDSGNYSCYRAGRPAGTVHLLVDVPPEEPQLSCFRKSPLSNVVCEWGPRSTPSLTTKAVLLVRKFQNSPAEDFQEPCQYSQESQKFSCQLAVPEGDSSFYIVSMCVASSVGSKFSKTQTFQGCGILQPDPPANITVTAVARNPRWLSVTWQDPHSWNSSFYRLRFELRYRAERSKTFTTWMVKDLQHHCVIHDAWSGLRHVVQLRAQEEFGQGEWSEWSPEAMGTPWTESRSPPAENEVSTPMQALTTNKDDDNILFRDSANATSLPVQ
The experiment in a line: IgG ELISA for hIL-6R binding under conditions of Table 38. Particulars: IgG 2.5 μg/mL. Here is the method: The selected six types of antibodies and the 6RNMSC1-2_F02 antibody were subjected to ELISA under the conditions indicated in Table 38.
First, a StreptaWell 96 microtiter plate (Roche) was coated with 100 μL of TBS containing biotin-labeled hIL-6R at room temperature for one or more hours. After removing biotin-labeled hIL-6R that are not bound to the plate by washing each well of the plate with TBST, the wells were blocked with 250 μL of Blocking Buffer (2% skim milk/TBS) for one or more hours. Blocking Buffer was removed from each well. 100 μL each of the purified IgGs prepared to 2.5 μg/mL using TBS under the conditions described in Table 38 were added to the wells, and the plate was allowed to stand at room temperature for one hour to allow each IgG to bind to biotin-labeled hIL-6R in each well. TBST was prepared to make the final concentrations shown in Table 38, and each well was washed with the prepared TBST. HRP-conjugated anti-human IgG antibody (BIOSOURCE) diluted with TBS containing the same small molecules was added to each well. The plate was incubated for one hour. After washing with TBST prepared to the final concentrations shown in Table 38, the chromogenic reaction of the solution in each well added with TMB single solution (ZYMED) was terminated by adding sulfuric acid. Then, the color development was measured by absorbance at 450 nm.

Assay [1] concerns the target T2, human IL-6 receptor (hIL-6R) (Homo sapiens, UniProt P08887).
T2 sequence (P08887 20-357): T1 sequence (P08887 20-357 limits assumed)
Nature of the assay: IgG ELISA for hIL-6R binding in the presence of amino acids and amino acid metabolites (Table 14). Particulars: IgG 2.5 μg/mL. Here is the method: Meanwhile, each of the amino acids and metabolites thereof were appropriately prepared at the concentrations shown in Table 14 using the buffers shown in Table 13. The antigen used was biotin-labeled hIL-6R.
First, a StreptaWell 96 microtiter plate (Roche) was coated with 100 μL of PBS containing biotin-labeled antigens at room temperature for one hour or longer. […] 100 μL of each of the purified IgGs prepared at 2.5 μg/mL using Sample Buffer containing small molecules at the final concentrations shown in Table 14 were added to each well, and the plate was let still at room temperature for one hour to allow each IgG to bind to the antigen present in each well. After washing with Wash Buffer containing amino acids and amino acid metabolites at the final concentrations shown in Table 14, HRP-conjugated anti-human IgG antibody (BIOSOURCE) diluted with Sample Buffer containing amino acids and amino acid metabolites was added to each well, and the plate was incubated for one hour. After washing with Wash Buffer containing the respective amino acids and amino acid metabolites, the chromogenic reaction of TMB single solution (ZYMED) added in each well was terminated by adding sulfuric acid. Then, the color development was measured by absorbance at 450 nm.
For orientation: An ELISA detects its analyte on a solid surface through an enzyme-linked reagent.

Assay [2] deals with T2, human IL-6 receptor (hIL-6R). Nature of the assay: SPR (Biacore T200) of 6RNMSC1-2_F02 with hIL-6R with or without kynurenine or ATP. The class given is binding. Particulars: 1 μmol/L hIL-6R. From the text:
Biacore T200 (GE Healthcare) was used to analyze the interaction of antigen-antibody reaction between 6RNMSC1-2_F02 and human IL-6 receptor (hIL-6R). An appropriate amount of protein A (Invitrogen) was immobilized onto Sensor chip CM5 (GE Healthcare) by the amine coupling method. The antibody of interest was captured onto the sensor chip, and the antigen hIL-6R was allowed to interact. The running buffer used was 20 mmol/L ACES, 150 mmol/L NaCl, 0.05% (w/v) Tween 20, pH 7.4. The interaction with the antigen hIL-6R was measured at 25° C. hIL-6R was diluted with the running buffer, the running buffer containing 100 μmol/L kynurenine, or, as a control, the running buffer containing 10 mmol/L ATP.
Diluted hIL-6R solutions and the running buffer which is the blank were injected at a flow rate of 10 μL/min for one minute and hIL-6R was allowed to interact with 6RNMSC1-2_F02 captured on the sensor chip. Then, the running buffer was run at a flow rate of 10 μL/min for one minute to observe the dissociation of hIL-6R from the antibody. […] The dissociation constant KD (M) of 6RNMSC1-2_F02 for hIL-6R was calculated from the kinetic parameters, the association rate constant ka (1/Ms) and the dissociation rate constant kd (l/s), calculated based on the sensorgrams obtained by the measurements. Each parameter was calculated using Biacore T200 Evaluation Software (GE Healthcare).
(In general: SPR reads the build-up and loss of mass on a sensor chip optically.)

Assay [3] is classed as binding. As to conditions: Biacore T200, 15° C. As to the method:
Kynurenine-dependent antibody 6RNMSC1-2_F02 obtained from the library was assessed for its binding to kynurenine and derivatives thereof using Biacore T200 (GE Healthcare). The following […] molecules were assessed as derivatives: the kynurenine isomer D-kynurenine and the derivatives 3-hydroxy-DL-kynurenine, 4-(4-methylphenyl)-4-oxobutyric acid, R00447436-000-001, RO0635389-000-001, R00438566-001-001, and RO0635390-000-001. The chemical structure of each compound is shown below.
An appropriate amount of protein A (Invitrogen) was immobilized onto Sensor chip CM4 (GE Healthcare) by the amine coupling method. The antibody of interest was captured thereon, and the antigen kynurenine and derivatives thereof were allowed to interact. The running buffer used was 50 mmol/L Tris-HCl, 150 mmol/L NaCl, 0.02% (w/v) Tween 20, 5% DMSO, pH 7.6. All measurements were carried out at 15° C. The antigens were diluted with the running buffer.
Then, the running buffer was run at a flow rate of 30 μL/min for 60 seconds to observe the dissociation of antigens from the antibody. Kinetic parameters, the association rate constant ka (1/Ms) and the dissociation rate constant kd (l/s), were calculated based on the sensorgrams obtained by the measurements. The dissociation constant KD (M) was calculated from these constants. Each parameter was calculated using Biacore T200 Evaluation Software (GE Healthcare).

B1: 6RNMSC1-2_F02: antibody binding hIL-6R in the presence of kynurenine; heavy chain SEQ ID NO: 32, light chain SEQ ID NO: 33 (antibody, listed as Homo sapiens, V domains shown)
VH: QVQLVQSGAEVKKPGSSVKVSCKASGGTFSSYAISWVRQAPGQGLEWMGGIIPIFGTANYAQKFQGRVTITADESTSTAYMELSSLRSEDTAVYYCARDAPVVARPRGAFDIWGQGTMVTVSS
VL: DIVMTQTPLSSPVTLGQPASISCRSSQSLVHSDGNTYLSWLQQRPGQPPRLLIHEISNRFSGVPDRFSGSGAGTNFTLKISRVEAEDVGVYYCMQATQFPRTFGQGTKVEIK
For the molecule B1, the “absorbance under condition 2 or 3 as compared to condition 1 (kynurenine-specific binding to biotin-labeled hIL-6R)” value with hIL-6R is “markedly low”. The “absorbance under condition 5 (3-hydroxy kynurenine solution)” value in assay [1] (3-Hydroxykynurenine 1 mM) was “high absorbance similarly to that under condition 1”. The “absorbance under condition 7 (no small molecule) compared to condition 1 (kynurenine solution)” value in assay [1] is reported as “significantly lower”. Moreover, the “hIL-6R binding in the presence of tryptophan” value in assay [1] (Tryptophan 1 mM) is recorded as “does not bind to the antigen hIL-6R”. Besides, in assay [2], the “hIL-6R binding in the absence of kynurenine” value was “not detected”. Further, the “hIL-6R binding in the presence of kynurenine” value in assay [2] (100 μmol/L kynurenine) is “bound to hIL-6R”. In addition, in assay [3], the “binding to 3-hydroxy-DL-kynurenine” value is listed as “bind”, the “binding to RO0635389-000-001” value is on record as “bind” and the “binding to RO0635390-000-001” value is “bind”.
